B1: BBSome complex member BBS1 (Homo sapiens), Q8NFJ9 (parent)
chain: MAAASSSDSDACGAESNEANSKWLDAHYDPMANIHTFSACLALADLHGDGEYKLVVGDLGPGGQQPRLKVLKGPLVMTESPLPALPAAAATFLMEQHEPRTPALALASGPCVYVYKNLRPYFKFSLPQLPPNPLEQDLWNQAKEDRIDPLTLKEMLESIRETAEEPLSIQSLRFLQLELSEMEAFVNQHKSNSIKRQTVITTMTTLKKNLADEDAVSCLVLGTENKELLVLDPEAFTILAKMSLPSVPVFLEVSGQFDVEFRLAAACRNGNIYILRRDSKHPKYCIELSAQPVGLIRVHKVLVVGSTQDSLHGFTHKGKKLWTVQMPAAILTMNLLEQHSRGLQAVMAGLANGEVRIYRDKALLNVIHTPDAVTSLCFGRYGREDNTLIMTTRGGGLIIKILKRTAVFVEGGSEVGPPPAQAMKLNVPRKTRLYVDQTLREREAGTAMHRAFQTDLYLLRLRAARAYLQALESSLSPLSTTAREPLKLHAVVQGLGPTFKLTLHLQNTSTTRPVLGLLVCFLYNEALYSLPRAFFKVPLLVPGLNYPLETFVESLSNKGISDIIKVLVLREGQSAPLLSAHVNMPGSEGLAAA
partner: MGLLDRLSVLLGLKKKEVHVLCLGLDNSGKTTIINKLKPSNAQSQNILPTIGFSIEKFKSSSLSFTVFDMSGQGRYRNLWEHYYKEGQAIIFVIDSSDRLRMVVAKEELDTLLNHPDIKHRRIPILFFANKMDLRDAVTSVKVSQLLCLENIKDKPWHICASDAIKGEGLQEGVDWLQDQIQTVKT
B2: ADP-ribosylation factor-like protein 6 (Homo sapiens), Q9H0F7-1 (parent)
chain: B1 partner
partner: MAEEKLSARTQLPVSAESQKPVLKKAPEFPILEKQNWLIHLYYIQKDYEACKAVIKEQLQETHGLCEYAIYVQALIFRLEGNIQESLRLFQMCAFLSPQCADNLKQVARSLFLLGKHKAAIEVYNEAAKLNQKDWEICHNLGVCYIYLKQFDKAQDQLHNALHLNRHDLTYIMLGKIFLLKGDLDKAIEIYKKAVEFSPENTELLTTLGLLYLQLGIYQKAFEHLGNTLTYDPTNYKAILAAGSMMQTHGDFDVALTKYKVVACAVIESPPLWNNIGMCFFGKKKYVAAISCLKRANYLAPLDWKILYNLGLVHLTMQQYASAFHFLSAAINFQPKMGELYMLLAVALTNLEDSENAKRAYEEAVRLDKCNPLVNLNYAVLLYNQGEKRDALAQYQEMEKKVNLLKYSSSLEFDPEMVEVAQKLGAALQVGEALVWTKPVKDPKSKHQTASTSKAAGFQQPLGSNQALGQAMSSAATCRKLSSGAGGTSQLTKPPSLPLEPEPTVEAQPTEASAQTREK

Variants of: B1
Settings: with ARL6, Q9H0F7-1

| effect of a mutation on the interaction | Variant |
| --- | --- |
| disrupting interaction strength | MAAASSSDSDACGAESNEANSKWLDAHYDPMANIHTFSACLALADLHGDGEYKLVVGDLGPGGQQPRLKVLKGPLVMTESPLPALPAAAATFLMEQHEPRTPALALASGPCVYVYKNLRPYFKFSLPQLPPNPLEQDLWNQAKEDRIDPLTLKEMLESIRETAEEPLSIQSLRFLQLELSEMEAFVNQHKSNSIKRQTVITTMTTLKKNLADEDAVSCLVLGTENKELLVLDPEAFTILAKMSLPSVPVFLEVSGQFDVEFRLAAACRNGNIYILRRDSKHPKYCIELSAQPVGLIRVHKVLVVGSTQDSLHGFTHKGKKLWTVQMPAAILTMNLLEQHSRGLQAVMAGLANGEVRIYRDKALLNVIHTPDAVTSLCFGRYGREDNTLIRTTRGGGLIIKILKRTAVFVEGGSEVGPPPAQAMKLNVPRKTRLYVDQTLREREAGTAMHRAFQTDLYLLRLRAARAYLQALESSLSPLSTTAREPLKLHAVVQGLGPTFKLTLHLQNTSTTRPVLGLLVCFLYNEALYSLPRAFFKVPLLVPGLNYPLETFVESLSNKGISDIIKVLVLREGQSAPLLSAHVNMPGSEGLAAA [M390R] |

Variants of: B1
Settings: with ARL6, Q9H0F7-1
Remark: another data set of the same source

| effect of a mutation on the interaction | Variant |
| --- | --- |
| disrupting interaction strength | MAAASSSDSDACGAESNEANSKWLDAHYDPMANIHTFSACLALADLHGDGEYKLVVGDLGPGGQQPRLKVLKGPLVMTESPLPALPAAAATFLMEQHEPRTPALALASGPCVYVYKNLRPYFKFSLPQLPPNPLEQDLWNQAKEDRIDPLTLKEMLESIRETAEEPLSIQSLRFLQLELSEMEAFVNQHKSNSIKRQTVITTMTTLKKNLADEDAVSCLVLGTENKELLVLDPEAFTILAKMSLPSVPVFLEVSGQFDVEFRLAAACRNGNIYILRRDSKHPKYCIELSAQPVGLIRVHKVLVVGSTQDSLHGFTHKGKKLWTVQMPAAILTMNLLEQHSRGLQAVMAGLANGEVRIYRDKALLNVIHTPDAVTSLCFGRYGREDNTLIMTTRGGGLIEKILKRTAVFVEGGSEVGPPPAQAMKLNVPRKTRLYVDQTLREREAGTAMHRAFQTDLYLLRLRAARAYLQALESSLSPLSTTAREPLKLHAVVQGLGPTFKLTLHLQNTSTTRPVLGLLVCFLYNEALYSLPRAFFKVPLLVPGLNYPLETFVESLSNKGISDIIKVLVLREGQSAPLLSAHVNMPGSEGLAAA [I399E] |
| disrupting interaction strength | MAAASSSDSDACGAESNEANSKWLDAHYDPMANIHTFSACLALADLHGDGEYKLVVGDLGPGGQQPRLKVLKGPLVMTESPLPALPAAAATFLMEQHEPRTPALALASGPCVYVYKNLRPYFKFSLPQLPPNPLEQDLWNQAKEDRIDPLTLKEMLESIRETAEEPLSIQSLRFLQLELSEMEAFVNQHKSNSIKRQTVITTMTTLKKNLADEDAVSCLVLGTENKELLVLDPEAFTILAKMSLPSVPVFLEVSGQFDVEFRLAAACRNGNIYILRRDSKHPKYCIELSAQPVGLIRVHKVLVVGSTQDSLHGFTHKGKKLWTVQMPAAILTMNLLEQHSRGLQAVMAGLANGEVRIYRDKALLNVIHTPDAVTSLCFGRYGREDNTLIMTTRGGGLIIKILKATAVFVEGGSEVGPPPAQAMKLNVPRKTRLYVDQTLREREAGTAMHRAFQTDLYLLRLRAARAYLQALESSLSPLSTTAREPLKLHAVVQGLGPTFKLTLHLQNTSTTRPVLGLLVCFLYNEALYSLPRAFFKVPLLVPGLNYPLETFVESLSNKGISDIIKVLVLREGQSAPLLSAHVNMPGSEGLAAA [R404A] |

Variants of: B2
Settings: with bbs4_bovin BBS4, Q1JQ97

| effect of a mutation on the interaction | Variant |
| --- | --- |
| disrupting interaction strength | MGLLDRLSVLLGLKKKEVHVLCLGLDNSGKTTIINKLKPSNAQSQNILPTIGFSIEKFKSSSLSFTVFDMSGQGRYRNLWEHYYKEGQAIIFVIDSSDRERMVVAKEELDTLLNHPDIKHRRIPILFFANKMDLRDAVTSVKVSQLLCLENIKDKPWHICASDAIKGEGLQEGVDWLQDQIQTVKT |
| disrupting interaction strength | MGLLDRLSVLLGLKKKEVHVLCLGLDNSGKTTIINKLKPSNAQSQNILPTIGFSIEKFKSSSLSFTVFDMSGQGRYRNLWEHYYKEGQAIIFVIDSSDRLRMVVAKEALDTLLNHPDIKHRRIPILFFANKMDLRDAVTSVKVSQLLCLENIKDKPWHICASDAIKGEGLQEGVDWLQDQIQTVKT |
| disrupting interaction strength | MGLLDRLSVLLGLKKKEVHVLCLGLDNSGKTTIINKLKPSNAQSQNILPTIGFSIEKFKSSSLSFTVFDMSGQGRYANLWEHYYKEGQAIIFVIDSSDRLRMVVAKEELDTLLNHPDIKHRRIPILFFANKMDLRDAVTSVKVSQLLCLENIKDKPWHICASDAIKGEGLQEGVDWLQDQIQTVKT |

Source: IntAct's records for PubMed 25402481
